The record followed here is patent US20220356239A1 (JIANGSU HENGRUI MEDICINE, published 2022).

Sequences and labels used below:
T1: Human IL-5 amino acid sequence with his tag (rhIL-5-his) (human, UniProt P05113 20-134)
T1 sequence: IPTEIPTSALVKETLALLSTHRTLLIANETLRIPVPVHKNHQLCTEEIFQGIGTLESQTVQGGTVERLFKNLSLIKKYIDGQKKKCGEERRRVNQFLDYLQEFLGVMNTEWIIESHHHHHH

B1: h1773-007 (antibody, human IgG1, kappa, V domains shown)
VH: EVQLVESGGGLVQPGGSLKLSCAASGFTISNTYIHWVKQASGKGLEWIGRIDPAVGDTKHGPKFQGRFTISADDSKNTAYLQMNSLKTEDTAVYYCFRYGIYPDHWGQGTLVTVSS
VL: DIQLTQSPSSLSASVGDRVTITCSASSSVNYIYWYQQKPGKSPKPWIYLTATLASGVPSRFSGSGSGTDFTLTISSLQPEDFATYYCQQWNSYPYTFGGGTKVEIKR
B2: Hu39D10 (antibody, human IgG4 S228P, kappa, V domains shown)
VH: EVQLVESGGGLVQPGGSLRLSCAVSGLSLTSNSVNWIRQAPGKGLEWVGLIWSNGDTDYNSAIKSRFTISRDTSKSTVYLQMNSLRAEDTAVYYCAREYYGYFDYWGQGTLVTVSS
VL: DIQMTQSPSSLSASVGDRVTITCLASEGISSYLAWYQQKPGKAPKLLIYGANSLQTGVPSRFSGSGSATDYTLTISSLQPEDFATYYCQQSYKFPNTFGQGTKVEVKR
B3: h1780-017 (antibody, human IgG1, kappa, V domains shown)
VH: EVQLVQSGAEVKKPGASVKVSCKASGYTFTEYLIHWVRQAPGQGLEWIGYINPYSGGTVYNEKFKSRATLTVDKSISTAYMEFSRLRSDDTAVYYCARDGGYSDPLDYWGQGTMVTVSS
VL: DTVLTQSPATLSLSPGERATLSCRASEGLTSYMHWYQQKPGQAPRLLIYKASNLASGVPARFSGSGSGTDFTLTISSLEPEDFATYFCQQNWNDPWTFGGGTKVEIKR
B4: h1706-006 (antibody, human IgG1, kappa, V domains shown)
VH: EVQLVESGGGLVQPGGSLRLSCAASGFTFSHYYMAWVRQAPGKGLEWVSSINYEGNSAYYGDSVKGRFTISRDNSKNTLYLQMNSLRAEDTAVYYCATETLRESLDYWGQGTMVTVSS
VL: DIQMTQSPSSVSASVGDRVTITCRASQDIGNYLSWYQQKPGKSPKLLIYSASNLEVGVPSRFSGSGSGTDFTLTISSLQPEDFATYYCLQHKQFPRTFGGGTKVEIKR
B5: h1705-007 (antibody, human IgG1, kappa, V domains shown)
VH: B4 VH with N52S, N56D, S57I, A58T, T98S, E99Q, L105F, M113L
VL: B4 VL with G30A, S50G, A51T, G66R, H91D, Q93E
B6: h1706-004 (antibody, human IgG1, kappa, V domains shown)
VH: B4 VH with S49T, V93T
VL: B4 VL with S43A
B7: h1706-007 (antibody, human IgG1, kappa, V domains shown)
VH: B4 VH with S49T, V93T
VL: B4 VL
B8: h1706-009 (antibody, human IgG1, kappa, V domains shown)
VH: B4 VH
VL: B4 VL with L47M, F71Y, Y87F
B9: h1705-008 (antibody, human IgG1, kappa, V domains shown)
VH: B4 VH with S49T, N52S, N56D, S57I, A58T, V93T, T98S, E99Q, L105F, M113L
VL: B4 VL with G30A, S50G, A51T, G66R, H91D, Q93E
B10: h1705-010 (antibody, human IgG1, kappa, V domains shown)
VH: B4 VH with N52S, N56D, S57I, A58T, T98S, E99Q, L105F, M113L
VL: B4 VL with G30A, L47V, S50G, A51T, G66R, T69S, F71Y, Y87F, H91D, Q93E
B11: h1705-005 (antibody, human IgG1, kappa, V domains shown)
VH: B4 VH with S49T, N52S, N56D, S57I, A58T, V93T, T98S, E99Q, L105F, M113L
VL: B4 VL with G30A, S43A, S50G, A51T, H91D, Q93E
B12: h1705-004 (antibody, human IgG1, kappa, V domains shown)
VH: B4 VH with N52S, N56D, S57I, A58T, T98S, E99Q, L105F, M113L
VL: B4 VL with G30A, S43A, S50G, A51T, H91D, Q93E
B13: h1705-011 (antibody, human IgG1, kappa, V domains shown)
VH: B4 VH with S49T, N52S, N56D, S57I, A58T, V93T, T98S, E99Q, L105F, M113L
VL: B4 VL with G30A, L47V, S50G, A51T, G66R, T69S, F71Y, Y87F, H91D, Q93E
B14: h1706-003 (antibody, human IgG1, kappa, V domains shown)
VH: B4 VH
VL: B4 VL with S43A
B15: h1779-014 (antibody, human IgG1, kappa, V domains shown)
VH: EVQLVQSGAEVKKPGASVKVSCKASGYTFTDYIIHWVKQAPGQGLEWIGYFNPNSGGSNYNENFKRKATMTADKSISTAYLEFSRLRSEDTAVYYCARRIAWDHWYFDFWGQGTMVTVSS
VL: DIQMTQSPSSLSASVGDRVTITCLASEGISNDVAWYQQKPGKSPKLLIYAASRLQDGVPSRFSGSGSGTDFTFTISSLQPEDIATYYCQQGYKTPLTFGQGTKLEIKR
notes: h1779_VH.1D + h1779_VL.1A; IgG1 (YTE) / kappa constant regions

Positions count from the first letter of the chain named.

For the first assay, the target named is T1, Human IL-5 amino acid sequence with his …. In words: cell-based or functional assay.
For B1, the “IC50 of inhibition of IL-5-induced proliferation of TF1 cells” value (from here on “IC50 of inhibition … of TF1 cells”) was found to be 380 pM. Turning to B2, the “IC50 of inhibition … of TF1 cells” value was 300 pM. As to B3, the “IC50 of inhibition … of TF1 cells” value worked out at 160 pM. On the same count and under the same terms, the same measure for B4: 340 pM; for B5: 250 pM. Still for that read-out and setting: the result for B6 reads 300 pM. On the same count and under the same terms, the same measure for B7: 280 pM; for B8: 250 pM; for B9: 200 pM. Take B10: the “IC50 of inhibition … of TF1 cells” value came to 300 pM. On the same count and under the same terms, the same measure for B11: 300 pM. On the same count and under the same terms, the result for B12 reads 300 pM; that for B13, 280 pM.

In the case of B14, the “IC50 of inhibition … of TF1 cells” value was determined as 310 pM. On to B15, for which the “IC50 of inhibition … of TF1 cells” value was 200 pM.

Another assay shares this target. Briefly: cell-based or functional assay. The source holds these as a separate data set.
As for B2, the “IC50 of blocking IL-5-induced eosinophil adhesion” value stood at 0.0118 µg/mL. Still for that read-out and setting: the result for B3 reads 0.0212 µg/mL. Still for that read-out and setting: the result for B8 reads 0.0043 µg/mL.

Regarding B9, the “IC50 of blocking IL-5-induced eosinophil adhesion” value stood at 0.00485 µg/mL.

The next assay has the same target. In words: FACS blocking of biotin-IL-5 binding to IL-5Rα/β CHO-S cells. Here is the method:
Particular method: CHO-S-IL-5Rα and β were cultivated with CD-CHO containing […] and 25 ng/ml zeozin, and the concentration during cell culture was no more than 3×10⁶ cells/ml. The IL-5Rα/β-CHOS cells in good condition were centrifuged (1000 rpm, 5 min), washed once with 10% FBS in PBS, counted, the cell concentration was adjusted to 4×10⁶ cells/ml, and 25 μl of which was added to 96-well plate with round bottom. Antibodies to be tested were diluted with PBS solution containing 10% FBS, with an initial concentration of 200 μg/ml, and 8 gradients were obtained by 1:10 dilution. 25 μl of 100 ng/ml IL-5 labeled with Biotin Labeling Kit (Dojindo Chemical, LK03), was uniformly mixed with 50 μl of each diluted antibody, added into the 96-well plate to which the cells has been added, and incubated at 4° C. for 1 hour. After the incubation, centrifuged at 4° C. (400 g, 5 min), the supernatant was discarded, centrifuged and washed with 200 μl of pre-cooled PBS, repeat twice; PE-Avidin secondary antibody diluted at 1:1333 was added and incubated in darkness at […] for 40 min, the supernatant was discarded after being centrifuged at 4° C. […] The plate was read on instrument, and IC50 values for IL-5 antibodies to block the binding between IL-5 and IL-5Rα/β were calculated based on the fluorescence signal values.
What is called IC50 is the point on the concentration scale where inhibition reaches its midpoint. Low values mean greater potency, high ones weaker potency. As to B15, the concentration for half-maximal inhibition (IC50) came out at 0.0496 µg/mL.

For another assay the target is unchanged. In words: Biacore T200 SPR, antibody captured on Protein A chip, antigen in flow, 1:1 Langmuir fit. Here is the method: The affinity between the test humanized IL-5 antibodies and human IL-5 was determined by using Biacore T200 (GE) instrument.
Molecules to be tested were affinity-captured by Protein A biosensor chip, and then the antigen (prepared in Example 1) was flowed through the surface of the chip, and the reaction signals were detected in real time by using Biacore T200 instrument to obtain binding and dissociation curves. After the dissociation of each cycle of experiment was completed, the biosensor chip was washed and regenerated with glycine-hydrochloric acid regeneration solution (pH 1.5). The data was fitted to the (1:1) Langmuir model by using BIAevaluation version 4.1 GE software, and the affinity values were obtained as shown in Table 14.
For orientation: In SPR one partner is held on a chip, and binding of the other changes the refractive index at the surface.
As a reminder, the Kd is the concentration at which binding is half-saturated. B15 registered a Kd of 412 pM.
